Consider two substances from publication PMC5131995.

What is called Kd is the free concentration of one partner at which half of the binding sites on the other are occupied at equilibrium, for simple one-to-one binding.

The target in this experiment is recombinant human FcγRIIIa (V158) (human) (UniProt P08637). Nature of the experiment: SPR. In general terms: Surface plasmon resonance follows binding to a sensor surface in real time, without labels.
UniProt P08637, sequence (P08637 17-208): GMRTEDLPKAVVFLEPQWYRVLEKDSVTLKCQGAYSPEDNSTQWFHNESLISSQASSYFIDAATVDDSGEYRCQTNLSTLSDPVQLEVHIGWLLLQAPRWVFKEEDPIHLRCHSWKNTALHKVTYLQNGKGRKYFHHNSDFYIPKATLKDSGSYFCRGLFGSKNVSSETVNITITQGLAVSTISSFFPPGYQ

Turning to “anti-EGFR hIgG1 chimeric mAb with variant hIgG1-Fc from donor vector phIgG-SDIE (from UniProt P01875)”, the Kd worked out at 7.42 nM.

In the case of “anti-EGFR hIgG1 chimeric mAb with variant hIgG1-Fc from donor vector phIgG-mu (from UniProt P01875)”, the Kd worked out at 29.4 nM.
